# According to patent US7193044B1, “Compounds and methods for regulating apoptosis, and methods of making and screening for compounds that regulate apoptosis” (Immunogen, Inc., priority 2000, dated 2007):
# Experiments:
# [1] = test system: BAD phosphorylation in COS-7 cells; experiment: BAD phosphorylation in COS-7 cells (western blot band-shift); assay type: cell-based; conditions: anti-HA western blot
# From the text: Mouse FL5.12 cells were then transfected with the expression vector encoding the shorter murine BAD of SEQ ID NO:3 or one of the three BAD mutants. Total mRNA was isolated from the transfected FL5.12 cells, and reverse transcribed into cDNA. The cDNA was then subcloned into the expression vector pcDNA3 so that the amino acid sequence of the BAD or mutant BAD, encoded by the subcloned cDNA, was in-frame and operably linked to an N-terminal hemagglutinin (“HA”) epitope encoded by the expression vector. The expression vectors encoding the HA-tagged shorter murine BAD and mutant BAD were expressed in COS-7 cells. Whole cell lysates (“WCL”) were then prepared from the COS-7 cells expressing the polypeptides. The phosphorylation of the shorter murine BAD of SEQ ID NO:3 and mutant BAD were detected by a western blot of the WCL, probed with an anti-HA antibody (“anti-HA antibody”). […] Of note, each of the BAD mutants resolved as a doublet on a 16% SDS-PAGE, even though in the amino acid sequence of each of the BAD mutants one or both of the serines corresponding to Ser112 and Ser136 were mutated, i.e., substituted with alanine. […]
# [2] = test system: HeLa cells; experiment: Fluorescence-based beta-galactosidase assay of BAD-induced cell death in transfected HeLa cells; set-up: species or system human; conditions: compared to wild-type BAD
# Procedure: FIG. 12(B) is a graphic representation of the results of a β-galactosidase assay. HeLa cells were co-transfected with the β-galactosidase gene and either HA-BAD (“WT”), HA-BAD S155A (“S155A”), HA-BAD S112A/S136A (“S112A/S136A”) or HA-BAD S112A/S136A/S155A (“AAA”). Transfected cells were then cultured in serum-free medium (SFM) or SFM supplemented with EGF (SFM+EGF) for 12 hours. Cell lysates were prepared and BAD-induced cell death was measured by the loss of β-galactosidase activity in a fluorescence-based assay. Fluorescence was measured at 465 nm. Results shown are the average and standard deviation of triplicate transfections (this experiment was repeated two more times with similar results). Expression levels of HA-tagged BAD and BAD mutants in transfected cell lysates were detected by anti-HA western blot analysis: HA-BAD (“WT”), HA-BAD S155A (“A”), HA-BAD S112A/S136A (“AA”), and HA-BAD S112A/S136A/S155A (“AAA”).
# FIG. 12(C) is a graphic representation of the results of a β-galactosidase assay. HeLa cells were co-transfected with the β-galactosidase gene and either an empty vector (“CTL”), wild-type BAD (“WT”), the BAD S155A mutant (“S155A”) or the BAD S155D mutant (“S155D”). Cell lysates were prepared and BAD-induced cell death was measured by the loss of β-galactosidase activity in a fluorescence-based assay. Fluorescence was measured at 465 nm. Results shown are the average and standard deviation of triplicate transfections (this experiment was repeated two more times with similar results).
# HeLa cells were co-transfected with the β-galactosidase gene and either wild-type BAD, BAD S155A, BAD S112A/S136A or BAD S112A/S136A/S155A. […] Cell lysates were prepared and BAD-induced cell death was measured by the loss of β-galactosidase activity in a fluorescence-based assay. […]
# To measure β-gal activity, HeLa cells were plated in 12-well plates at 5×10^4 cells/well one day prior to transfection. […] Beta-gal activity was measured in extracts using a fluorogenic substrate (MUG, BIO-RAD FluorAce™ β-gal Reporter Assay, #170–3150). […]
# [3] = test system: HeLa cells; experiment: Beta-gal ELISA apoptosis assay in transfected HeLa cells; assay type: cell-based, human; conditions: HeLa cells, 24 hours post-transfection
# Procedure: Because BAD Ser155 phosphorylation, like Ser136 phosphorylation, prevents BAD from binding to Bcl-XL (FIG. 1), it was possible that by analogy, Ser155 dephosphorylation promotes cell death. To test this idea, HeLa cells were co-transfected with BAD or various BAD serine mutants and a β-gal reporter plasmid. Twenty-four hours post-transfection, cell viability was analyzed by β-gal ELISA.
# To test this idea, HeLa cells were again co-transfected with BAD or various BAD serine mutants and a β-gal reporter plasmid. Forskolin was then added to half of the cultures while the other half was left untreated. Beta-gal ELISAs were performed 24 hours post transfection. […] Thus, phosphorylation of Ser155 rescues cells from BAD-induced apoptosis, while substitution of Ser155 with a nonphosphorylatable residue results in increased cell death and the failure of cells to be protected from induced PKA activity.
# Beta-gal ELISA assays were performed using the β-gal ELISA system from Boehringer Mannheim, according to manufacture's instructions. Cells were transfected with BAD (or BAD mutant) and β-gal in a ratio of 5:1. The transfected cells were trypsinized and distributed into 96-well tissue culture plates. Twenty-four hours after transfection, cell extracts were obtained by lysing the cells in lysis buffer. Cell extracts (200 μl) were then added to anti-β-gal-coated microtiter plates (MTP). The MTPs were foil-covered and incubated for one hour at 37° C. Solutions were then decanted and the MTPs were washed, followed by the addition of 200 μl of anti-β-gal-DIG working solution, and incubation for an additional hour as described above. Solutions were again decanted, the MTPs washed and 200 μl of DIG-POD working solution were added. The MTPs were incubated for another hour at 37° C., the solution decanted, and the wells washed. 200 μl of substrate with enhancer were added to each well and incubated at room temperature until color development. The β-gal activity was measured by the absorbance of the sample at […]. Data were based on triplicate wells with standard deviations calculated.
# [4] = test system: BAD Ser155 phosphorylation in HeLa cells; experiment: BAD phosphorylation in HeLa cells (western blot band-shift / anti-phospho-Ser155 antibody); assay type: cell-based, human; conditions: HeLa cells
# Procedure: A mammalian expression vector encoding mutant HA-BAD S155A, derived from the shorter murine BAD of SEQ ID NO:3, was constructed. HA-BAD S155A has an amino acid sequence wherein the serine at a position corresponding to Ser155 is substituted with alanine. A western blot was performed on WCL prepared from cells expressing the shorter murine BAD (SEQ ID NO:3), HA-BAD S112A, HA-BAD S136A, or HA-BAD S155A, and probed with anti-HA antibody.
# A western blot analysis, probed with anti-HA antibody, was performed on lysates produced from the Forskolin treated and untreated (control) cells to determine whether Forskolin could induce the phosphorylation BAD or mutant BAD.
# HeLa cells transiently expressing HA-BAD, HA-BAD S155A, HA-BAD S112A/S136A, or HA-BAD S112A/S136A/S155A were treated with Forskolin or a buffer control.
# The HA-BAD S112A/S136A double mutant was transiently expressed in HeLa cells, and transfected cell cultures were treated with each of the GPCR ligands, individually and as a group. A western blot analysis, probed with anti-HA antibody, was performed on lysates produced from the treated and untreated (negative control) cells. […] Forskolin (FK) and no treatment (−) were positive and negative controls, respectively (FIG. 6(a), […], respectively).
# Non-transfected HeLa cells were treated with Forskolin or L-epinephrine, followed by western blot analysis of cell lysates using anti-BAD antibodies.
# Transformants were treated with L-epinephrine, then lysed and subjected to anti-HA western blot analysis.
# To further test whether phosphorylation of Ser155 is dependent on the PI 3-kinase/Akt pathway, HeLa cells were transfected with the mutant HA-BAD S155A and pretreated with Wortmannin, an inhibitor of PI 3-kinase. These cells were then stimulated with epidermal growth factor (EGF), lysed and analyzed by western blot analysis.
# For immunoprecipitation of all HA-BAD species, 1 μg of the anti-HA antibody was added to the cell lysates, and incubated at 4° C. for one hour. Protein G agarose (Pierce) was then added (50 μl/fraction of 50% slurry) and followed by a one hour incubation at 4° C. Beads were washed with RIPA buffer, boiled in loading buffer (2% SDS, 10% glycerol, 5% β-ME, 60 mM Tris, pH 6.8, 0.002% Bromophenol Blue) and loaded onto polyacrylamide gels. After electrophoresis, proteins were transferred to nitrocellulose membranes, and blots blocked in western wash buffer (40 mM Tris, pH 8.0, 150 mM NaCl, 0.2% NP-40) with 5% BSA for one hour at room temperature. Blots were incubated with primary antibody diluted in western wash buffer with 3% BSA at room temperature for 1–2 hours, washed with western wash buffer and incubated with secondary HRP-coupled antibody diluted in western wash buffer with 1.5% BSA, and washed extensively. Polypeptides were detected with the ECL chemiluminescence according to the manufacturers instructions (Amersham).
molecule,measurement,setting,value
"HA-BAD S112A/S134A/S136A: HA-tagged mutant of shorter murine BAD, serines corresponding to Ser112, Ser134 and Ser136 substituted with alanine (protein, UniProt Q61337 1-204, looked up, variant S112A S134A S136A, HA tag, HA-tagged mutant of shorter murine BAD, serines corresponding to Ser112, Ser134 and Ser136 substituted with alanine) Bcl2-associated agonist of …: MGTPKQPSLAPAHALGLRKSDPGIRSLGSDAGGRRWRPAAQSMFQIPEFEPSEQEDASATDRGLGPSLTEDQPGPYLAPGLLGSNIHQQGRAATNSHHGGAGAMETRSRHSAYPAGTEEDEGMEEELSPFRGRARAAPPNLWAAQRYGRELRRMSDEFEGSFKGLPRPKSAGTATQMRQSAGWTRIIQSWWDRNLGKGGSTPSQ",phosphorylation of expressed BAD mutant (lambda phosphatase-sensitive higher molecular weight band),[1],does not eliminate the phosphorylation of BAD
"BAD S155D: BAD mutant, Ser155 replaced with aspartic acid to mimic the negatively charged phospho-Ser155 residue (protein, UniProt Q61337 1-204, looked up, variant S155D) Bcl2-associated agonist of …: MGTPKQPSLAPAHALGLRKSDPGIRSLGSDAGGRRWRPAAQSMFQIPEFEPSEQEDASATDRGLGPSLTEDQPGPYLAPGLLGSNIHQQGRAATNSHHGGAGAMETRSRHSSYPAGTEEDEGMEEELSPFRGRSRSAPPNLWAAQRYGRELRRMDDEFEGSFKGLPRPKSAGTATQMRQSAGWTRIIQSWWDRNLGKGGSTPSQ",pro-apoptotic activity,[2],no pro-apoptotic activity
"BAD S136A: mutant of shorter murine BAD, serine corresponding to Ser136 substituted with alanine; HA- or GST-tagged (protein, UniProt Q61337 1-204, looked up, variant S136A, HA or GST tag, mutant of shorter murine BAD, serine corresponding to Ser136 substituted with alanine; HA- or GST-tagged) Bcl2-associated agonist of …: MGTPKQPSLAPAHALGLRKSDPGIRSLGSDAGGRRWRPAAQSMFQIPEFEPSEQEDASATDRGLGPSLTEDQPGPYLAPGLLGSNIHQQGRAATNSHHGGAGAMETRSRHSSYPAGTEEDEGMEEELSPFRGRSRAAPPNLWAAQRYGRELRRMSDEFEGSFKGLPRPKSAGTATQMRQSAGWTRIIQSWWDRNLGKGGSTPSQ",effect of expressed BAD mutant on cellular survival / cell death,[3],next greatest effect
same,band-shift (phosphorylation) of expressed BAD construct in response to L-epinephrine,[4],significant band-shift
